± gives the uncertainty stated by the source.
Assay: amyloid nucleation score (Sup35N fusion, yeast selection) (log enrichment); library NNK3; higher = more nucleation; inactive = no reads after selection
Summary of the method: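 After 24 hours of induction with 100 μM copper sulfate, psi-negative yeast expressing peptides of 20 random codons fused to Sup35N were grown for 7 days at 30°C on medium lacking adenine and uracil. Input and output plasmid inserts were sequenced with Illumina, and sequences with under 100 input reads were discarded. Scores for nucleation are the DiMSum log enrichment of output over input reads, centred on the mode score of non-aggregating sequences.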

Row | Substance | amyloid nucleation score
1 | LASGRHQASVHCRVNSMMYS | inactive
2 | YFRQFSVYYLFFNLMYILHA | inactive
3 | LCCTRTSHIMSRVARMAFRV | inactive
4 | NIARRTIKLTPFFSIFCVYS | 3.2 ± 0.055
5 | LGSVVRRDEGIVGESY | 0.078 ± 0.6
6 | FFLSTTGSMPHFPFKVSSSF | 0.088 ± 0.24
7 | ANDGAHFFIIQLECHAEEVR | -0.303 ± 0.39
8 | NMVTYTMIWLWMSMAAPS | inactive
9 | KVNGYSLMLLDPVGGLTNT | inactive
10 | AIRGMNAERNR | inactive
11 | MSLLS | inactive
12 | FLNCSSQKNATPHILFNGGM | inactive
13 | STMLSYAVWALDMVFSYKVY | -0.509 ± 0.84
14 | YAARNWIVQVD | inactive
15 | LFFCHYILY | 1.58 ± 0.087
16 | HSRYLMQLYVNSFSRFD | 1.28 ± 0.12
17 | FVCLSNIHMGTKTVILAMCL | inactive
18 | RLTWESTMYVKIVGMSYAFG | -0.241 ± 0.36
19 | FFVWKHLLMRFRYALACTLM | inactive
20 | VEFSVFGERNVIYGVLSWRS | 1.12 ± 0.12
21 | FLAMSSASMFRYFKPVASSE | 2.91 ± 0.066
22 | MCEGAIQQRILLSMKFCCKW | 0.037 ± 0.87
23 | HVTSVMIFIIASIMYVEIKY | 0.339 ± 0.34

Row | Substance | amyloid nucleation score
24 | LFALSWTS | 0.182 ± 0.35
25 | QCQFYTSMMSAR | inactive
26 | LAITNIEWSLFIQWTLI | inactive
27 | RTWDLDVGVLRLWVLSIG | inactive
28 | PFVFTLNDQCGGIRSLICVL | inactive
29 | SNWSWQSPW | inactive
30 | VWSHSI | inactive
31 | YWYYGCGSVGFAIRPWMSGI | 1.58 ± 0.11
32 | RNGMISQAYSVP | inactive
33 | ILYGKVTKKRGSKALSVRVM | inactive
34 | TNESIMCGLAT | inactive
35 | NLTYVMGSGWLLYQCVIM | 2.61 ± 0.057
36 | VYNALNNSAVLQL | inactive
37 | FFKYYG | inactive
38 | EYLLSSMRLSVILSAWYARC | inactive
39 | NLSSSDTRSVCASWVTR | inactive
40 | PTDDGLSNRMKQMSGHRVLH | inactive
41 | SILYMVIASWYLY | inactive
42 | IVVFLDLFRDTFGLGLPTKG | inactive
43 | KRDHMVSLGYSLGSKQRGVG | inactive
44 | YYFLDRGGITSTIFRLLCPF | inactive
45 | DVYSYKFDR | inactive
46 | IGRTLSHSATRLVCTDPFRR | inactive

Row | Substance | amyloid nucleation score
47 | KRYVCSTVTMLNCQVR | inactive
48 | RMAYIENGVDTAACSDLYVL | inactive
49 | FMISDNMAQCMERGYRAEVF | inactive
50 | SHECNLCFNVL | inactive
51 | YSIISSYTFEFSKFAVLALL | inactive
52 | KYFIINYSVSSNGRKAHYCQ | 2.28 ± 0.065
53 | LMTNRVVL | inactive
54 | YLRAAIL | inactive
55 | RIVYCSFTKVG | inactive
56 | GFIGK | inactive
57 | QSFGSHYASVMAKY | inactive
58 | AYEIQWIWPNAASTVKSVLA | inactive
59 | NFTSFCFSKMSRLEDSGQ | inactive
60 | IEVKDSVGVRCFYTYSPTCQ | inactive
61 | YRAKNSDRCPGDAYTYFVLR | inactive
62 | IRRLSSVCMGCSWYL | inactive
63 | TLLGNINPLLW | inactive
64 | YLLNVVYGKEVHMASDFLYG | inactive
65 | LKRYFI | inactive
66 | TKYTNPHERSIEMSLFRERQ | inactive
67 | LFKGGDSICYSHWSVRSSRK | 1.09 ± 0.12
68 | RPFNHVDISYAKPLDNFWM | -0.582 ± 0.98
69 | NCMTLCLIDIRYSFENFFSF | 2.18 ± 0.071

Row | Substance | amyloid nucleation score
70 | AYNGK | inactive
71 | YWKFWIKSDVYCRSISGWCR | inactive
72 | WAVIFT | inactive
73 | AWVHNSVRRHSSPSPRLGGM | inactive
74 | LFLAKRSLSDTLFQPDPFSR | inactive
75 | PFAEQRRL | inactive
76 | VTPSTGRSIVVTPGTYIARV | inactive
77 | GNVIMLLVTLASGCIPLSSE | inactive
78 | IAAPRGMTDSRVVMRCLHVN | inactive
79 | GPPCDFCIRVSVCYTGSVNW | 0.466 ± 0.39
80 | VTRMLFVHCGTSVNVNS | inactive
81 | TLLARFSPRLATTYSNAICG | inactive
82 | DAIRQTSHMKLRSSYMQARR | inactive
83 | DHLSVWVSRLDTINCLREVG | inactive
84 | YSCVWNGKWCYYSTANDLS | inactive
85 | YDGIKSGFECLESGRKCKTA | inactive
86 | TFWYLFCDDDS | inactive
87 | YCYAMS | inactive
88 | VNDVLGNEPFRVVGEEEIPG | inactive
89 | HRPGFAGGHLWTVFKYVR | inactive
90 | RAQKVPCVIFSYTWIRSMSD | inactive
91 | MFEYLWEENMSLIYSKVDCG | inactive
92 | SIVRIFIIN | 2.27 ± 0.056

Row | Substance | amyloid nucleation score
93 | NKVISSSLTFRFIKVQFIYH | inactive
94 | GWNVWQGMNKNFGTYFSR | inactive
95 | FSNSSGNGEGDLRENLQNKM | inactive
96 | KRVCCCKNSSSCE | inactive
97 | GPDYHKHYRTYLPRTAFVGF | 1.27 ± 0.17
98 | KTRERGLSTGDGTQNEIAGY | -0.123 ± 0.51
99 | SIINLDLTAGHRYFYSSRSR | 2.11 ± 0.071
100 | CLRSVDDWFKC | inactive
101 | EVVGVYRERMSSFLLQGVLL | -0.042 ± 0.98
102 | NNFTVAWFYRHGSLSISFGY | inactive
103 | NEDLIDVQVVHC | inactive
104 | KCLGFHKHGALFTAYWGQTS | inactive
105 | DIVANYQMM | inactive
106 | FQESVIWKVYRNNNYRSLTV | inactive
107 | SDGLLLPRSRNVATVEMGDL | inactive
108 | FQNDDVTS | inactive
109 | PTTKYFLYNIYSFV | 2.02 ± 0.079
110 | DLGHQMVVRRHVLFLICCCN | inactive
111 | NWHDYSSGVGLKIRGECMNV | inactive
112 | GHSSSNMGNVHFKFLC | inactive
113 | SCSMHFLVCEDYNRMLALRC | inactive
114 | NMQLVYDRMDE | inactive
115 | LNSIG | inactive

Row | Substance | amyloid nucleation score
116 | LNLDCTS | inactive
117 | TLVIHIN | inactive
118 | LYWFCCLVIYVGPLVHPVEL | inactive
119 | FWSGIWSNTFRFYGAVIWPG | inactive
120 | SLSLRWFVGCKGSDGSALQC | inactive
121 | ASACPRLWVRLCLGCVIPKE | inactive
122 | VLLVCFLRTRKCSRLLAC | inactive
123 | ENMIRFLRDSLCGSFYNLPL | inactive
124 | CSIPFVWEIHHM | inactive
125 | CVEVY | inactive
126 | NNYSRVLSSIIEGIVIR | inactive
127 | NTRKHFVSWCAHPDEDSSFM | inactive
128 | ACGGCHYKRAYMQLGLMRLK | inactive
129 | CHSFIMIYVVMMDIS | 0.103 ± 0.55
130 | GILYGPCSFWDFVRLEMSRF | -0.504 ± 0.8
131 | FRYPLNYN | inactive
132 | LSPCGL | inactive
133 | DSSMIDRAENAH | inactive
134 | VLQYECHVDMCRGRWSLGAI | inactive
135 | FAISSILSMDAPGLDQIDRF | inactive
136 | GLNMVWFVHLSVNV | inactive
137 | GDLVSIWAMRFELRKSKEMR | inactive
138 | SYEGMTREPLYMVYMRGSTD | 1.16 ± 0.16

Row | Substance | amyloid nucleation score
139 | VEATSTRGDTAPVPERGMLG | -1.01 ± 1.7
140 | TIGFFSVVNYVWFSAYNWQS | -0.453 ± 0.35
141 | LTLSMKFTWYFYVSIYSGQG | inactive
142 | IYCWCSVIDTGRAARLRVIK | inactive
143 | KNGFRNVRKQRGAQKE | inactive
144 | FMSSFISMYFASAFHYAMWH | inactive
145 | SVRTLLVTHFLRKPLALI | inactive
146 | ITILT | inactive
147 | SLTALDNWCRIFAMPVLSWK | inactive
148 | WKTTMALRSVLPGGYLHFCV | inactive
149 | ADMCWTNRSETYDGELTVGV | inactive
150 | GWVYWVSMRVIPNRIVINDP | inactive
151 | SYMITLLKVIILSWHTYAVM | inactive
152 | GTVGHYRLST | inactive
153 | IVGLDWKNATVRDCRRNFIN | inactive
154 | SDRNSEGLTLF | inactive
155 | VGSITVRLWYILECGEEVDC | inactive
156 | VVCLGTFITGDFIVVYTHYG | 2.88 ± 0.054
157 | VQISVNSVNLLKRWFIRAGT | inactive
158 | VSIRAVRYKVLGLFWSSTHV | inactive
159 | ASNEERLLFKCLLKV | -0.411 ± 0.73

Reference: the supplement of paper PMC12042874
